Measurements from the supplement of paper PMC12042874.
± gives the uncertainty stated by the source.

Test: amyloid nucleation score (Sup35N fusion, yeast selection) (log enrichment); library NNK2; higher = more nucleation; inactive = no reads after selection
Outline: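 The nucleation score equals the log enrichment of output over input reads from DiMSum, centred on the mode score of non-aggregating sequences. It was computed only for sequences with 100 or more input reads. The reads came from Illumina sequencing of plasmid inserts from psi-negative yeast expressing Sup35N fused to peptides of 20 random codons, induced with 100 μM copper sulfate for 24 hours and grown 7 days at 30°C without adenine and uracil.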

Row | Substance | amyloid nucleation score
1 | TYQMWLDTE | -0.445 ± 0.39
2 | TYRIQRIFLPLYRWLVLLLS | -0.285 ± 0.76
3 | TYRLDSWITGSRLV | -0.555 ± 0.76
4 | TYSGLKNARWEFWMKSFDYF | -1.12 ± 0.5
5 | TYSSNASGVTVFR | -0.772 ± 0.63
6 | TYSVLRHFRRES | 0.589 ± 0.31
7 | TYTMGRHNFVMSLSFFSHSA | 4.861 ± 0.044
8 | TYYSLSLVAIMGAR | 1.82 ± 0.2
9 | VANDLQPWLRAVHSCFWYSS | 0.896 ± 0.17
10 | VAVCMWTTNVCVI | 7.804 ± 0.042
11 | VAWTRCSLHWLQFVLCLSGE | 5.92 ± 0.041
12 | VAYVKACRTSGVHQLSTDHV | 1.67 ± 0.34
13 | VCFVICDSPSFYV | 7.901 ± 0.044
14 | VCGQILDYWFVYT | 0.264 ± 0.23
15 | VCLCCYYIYYERFSNGFFLL | 5.02 ± 0.058
16 | VCLMLS | -0.573 ± 1.1
17 | VCSKHD | -0.78 ± 1.1
18 | VCSTEV | 0.32 ± 0.74
19 | VCTLRVSDNNLEKKSVLYMR | 3.97 ± 0.047
20 | VCVFEARVFSKLFVY | inactive
21 | VCWLLGSGFWAS | inactive
22 | VDDFELMLYAMVVNGLELLD | -0.19 ± 1

Row | Substance | amyloid nucleation score
23 | VDFIKIKRIGPER | -0.709 ± 0.38
24 | VDHQVFNHDHCGRIYVLCLG | -0.322 ± 0.31
25 | VDICGTRGKRRYCSLRLFAW | -0.594 ± 1.1
26 | VDIGENLEFCIVLSQ | -0.19 ± 0.55
27 | VDILG | -0.094 ± 1
28 | VDNCDLGIS | -0.861 ± 1.1
29 | VDQRRVHLDERDY | -0.371 ± 0.63
30 | VDTHSILASCLRVTKGVTDK | 0.138 ± 1.1
31 | VDVVFTSSSTSLCSLSWSGV | 4.79 ± 0.099
32 | VEARVHFPFWDLIEVSMYGY | -0.665 ± 0.49
33 | VECIRSVLVFFVFWLRSIFA | -1.38 ± 0.55
34 | VEFIVSWHGPAKRYPYATTL | 0.629 ± 0.34
35 | VEGRYAPKRSYVTPGWDV | -0.05 ± 0.55
36 | VEGTIRKRFGVWKYVLAPWL | -0.267 ± 0.38
37 | VENRMVVLRSSIAIWVSRTV | 0.955 ± 0.34
38 | VFAWRN | -0.347 ± 1.1
39 | VFCGFDIVFCKRAFGSKIYL | -0.632 ± 1.1
40 | VFCYRSDMSGTSSGGGYQM | -0.178 ± 0.29
41 | VFDGVSSGTCHLCAAWSWDG | 1.56 ± 0.14
42 | VFDVHIYRPSVP | 5.96 ± 0.069
43 | VFEFVVDNHLNIRLTRGGFM | 4.93 ± 0.084
44 | VFFISEIRPKFFLTLPRTAL | 4.87 ± 0.096

Row | Substance | amyloid nucleation score
45 | VFFWLQNFEVLWPMEARVWE | 4.14 ± 0.096
46 | VFINRFHRVMLRAVIRQGVV | 0.31 ± 0.5
47 | VFKLCTSPFSCLIGRMGGTD | 9.172 ± 0.063
48 | VFLKQVEPEGGQYETFLVVV | -0.19 ± 1.1
49 | VFLYNIGFK | 0.691 ± 0.38
50 | VFNWLNRGEESWDVVLVV | inactive
51 | VFSFRGLFGFIPMVPYWYAI | inactive
52 | VFTSYFLLFICLGYCEFYGD | 4.299 ± 0.042
53 | VFWSVYFDACLVFMTVSYLL | inactive
54 | VGAYPEEKR | -0.013 ± 0.38
55 | VGGGTECVLSRQEFGCWLLW | 0.649 ± 0.48
56 | VGIRCLRFFNMIVLEG | -0.059 ± 0.55
57 | VGIYDYVLRSC | 0.115 ± 0.33
58 | VGLGVRVEVLTMSFTILQSV | 3.36 ± 0.078
59 | VGLISERLVSMSTVA | 0.4 ± 0.56
60 | VGPVMINSSSVTQCTGWNRT | 3.8 ± 0.091
61 | VGPVNQRWGVTISLAPEVCF | 0.553 ± 0.57
62 | VGRGMHTSYFVGTHTWLSVC | 4.83 ± 0.11
63 | VGSKWLNGSRGKRLELRIGR | 4.03 ± 0.12
64 | VGTGLIIA | 1.18 ± 0.47
65 | VGTLNGFRRFGRSGKFNILE | -0.195 ± 0.27
66 | VHHLDNYLQAN | -0.659 ± 0.34

Row | Substance | amyloid nucleation score
67 | VHLALTRCM | 0.844 ± 0.32
68 | VHPGTR | 4.08 ± 0.065
69 | VHRSSLASNGSLES | -0.398 ± 0.45
70 | VHTMY | -0.299 ± 1.1
71 | VHVCVVACFACFSANSEKGG | 10.79 ± 0.042
72 | VHWSWIAVAGHKDRAPGVRR | 1.21 ± 0.3
73 | VHYQLKSIRMDSM | 0.484 ± 0.19
74 | VICEIMYNKMCDTSLRSSLS | 0.329 ± 0.65
75 | VICRGVHSHSLGWGSCITCS | -0.98 ± 0.48
76 | VIFAHGVFGECWFVYSLVFS | -0.784 ± 0.76
77 | VIFCVLLVNNLDWRFWPSSK | 4.928 ± 0.037
78 | VIISCTYVNY | -0.002 ± 0.4
79 | VIRRGMFIQPAFAKMLSAWF | -0.231 ± 1
80 | VIRTPILGYWSCIGTFNVFW | 8.167 ± 0.044
81 | VIVSMVSE | inactive
82 | VIYKSLHRLVISRVNVFFPV | -0.263 ± 0.65
83 | VKFFSSVLSNDGFRSLGVCL | 0.13 ± 1.1
84 | VKMFVF | -0.221 ± 0.79
85 | VKPHFRLGGNQNRPIPCSVS | 0.318 ± 0.45
86 | VKSMFLYTASSADPERGVYG | -1.27 ± 1.1
